In the supplement of paper PMC11246515:
± gives the standard deviation of the averaged measurements.

Test: total protein half-life in vivo (active degradation + dilution); higher = more stable protein
[1] = E. coli NCM3722 delta-clpP delta-lon delta-hslV, growth: N-lim chemostat, doubling time 6 h
[2] = E. coli NCM3722 delta-lon, growth: N-lim chemostat, doubling time 6 h
[3] = E. coli NCM3722 delta-smpB, growth: N-lim chemostat, doubling time 6 h
[4] = wild type E. coli NCM3722, growth: C-lim chemostat, doubling time 3 h
[5] = wild type E. coli NCM3722, growth: C-lim chemostat, doubling time 6 h
[6] = wild type E. coli NCM3722, growth: C-lim chemostat, doubling time 12 h
[7] = wild type E. coli NCM3722, growth: N-lim chemostat, doubling time 6 h
[8] = wild type E. coli NCM3722, growth: N-lim chemostat, doubling time 12 h
[9] = wild type E. coli NCM3722, growth: P-lim chemostat, doubling time 6 h
[10] = wild type E. coli NCM3722, growth: P-lim chemostat, doubling time 12 h
[11] = E. coli NCM3722 delta-clpP, growth: N-lim chemostat, doubling time 6 h
[12] = E. coli NCM3722 delta-hslV, growth: N-lim chemostat, doubling time 6 h

MTTNTHTLQIEEILELLPHRFPFLLVDRVLDFEEGRFLRAVKNVSVNEPFFQGHFPGKPIFPGVLILEAMAQATGILAFKSVGKLEPGELYYFAGIDEARFKRPVVPGDQMIMEVTFEKTRRGLTRFKGVALVDGKVVCEATMMCARSREA [P0A6Q6]
total protein half-life in vivo [1]: 5.67 ± 0.36 h | total protein half-life in vivo [2]: 5.38 ± 0.24 h | total protein half-life in vivo [3]: 5.504 ± 0.036 h | total protein half-life in vivo [4]: 2.86 ± 0.45 h | total protein half-life in vivo [5]: 6.1 ± 0.81 h | total protein half-life in vivo [6]: 11.2 ± 0.12 h | total protein half-life in vivo [7]: 6.23 ± 0.6 h | total protein half-life in vivo [8]: 11.9 ± 0.43 h | total protein half-life in vivo [9]: 5.75 ± 0.8 h | total protein half-life in vivo [10]: 13.4 ± 0.14 h

MTTNTVSRKVAWLRVVTLAVAAFIFNTTEFVPVGLLSDIAQSFHMQTAQVGIMLTIYAWVVALMSLPFMLMTSQVERRKLLICLFVVFIASHVLSFLSWSFTVLVISRIGVAFAHAIFWSITASLAIRMAPAGKRAQALSLIATGTALAMVLGLPLGRIVGQYFGWRMTFFAIGIGALITLLCLIKLLPLLPSEHSGSLKSLPLLFRRPALMSIYLLTVVVVTAHYTAYSYIEPFVQNIAGFSANFATALLLLLGGAGIIGSVIFGKLGNQYASALVSTAIALLLVCLALLLPAANSEIHLGVLSIFWGIAMMIIGLGMQVKVLALAPDATDVAMALFSGIFNIGIGAGALVGNQVSLHWSMSMIGYVGAVPAFAALIWSIIIFRRWPVTLEEQTQ
total protein half-life in vivo [1]: 5.1 ± 0.12 h | total protein half-life in vivo [11]: 4.77 h | total protein half-life in vivo [12]: 4.16 h | total protein half-life in vivo [3]: 4.997 ± 0.0071 h | total protein half-life in vivo [7]: 4.68 h | total protein half-life in vivo [8]: 7.998 ± 0.022 h | total protein half-life in vivo [9]: 5.12 ± 0.23 h | total protein half-life in vivo [10]: 8.61 ± 0.96 h

MTTPLKKIVIVGGGAGGLEMATQLGHKLGRKKKAKITLVDRNHSHLWKPLLHEVATGSLDEGVDALSYLAHARNHGFQFQLGSVIDIDREAKTITIAELRDEKGELLVPERKIAYDTLVMALGSTSNDFNTPGVKENCIFLDNPHQARRFHQEMLNLFLKYSANLGANGKVNIAIVGGGATGVELSAELHNAVKQLHSYGYKGLTNEALNVTLVEAGERILPALPPRISAAAHNELTKLGVRVLTQTMVTSADEGGLHTKDGEYIEADLMVWAAGIKAPDFLKDIGGLETNRINQLVVEPTLQTTRDPDIYAIGDCASCPRPEGGFVPPRAQAAHQMATCAMNNILAQMNGKPLKNYQYKDHGSLVSLSNFSTVGSLMGNLTRGSMMIEGRIARFVYISLYRMHQIALHGYFKTGLMMLVGSINRVIRPRLKLH
total protein half-life in vivo [1]: 6.51 ± 0.53 h | total protein half-life in vivo [11]: 6.87 ± 1.2 h | total protein half-life in vivo [12]: 6.08 ± 0.085 h | total protein half-life in vivo [2]: 6.332 ± 0.062 h | total protein half-life in vivo [3]: 5.82 ± 0.36 h | total protein half-life in vivo [4]: 3.15 ± 0.057 h | total protein half-life in vivo [6]: 11.78 ± 0.097 h | total protein half-life in vivo [7]: 6.12 ± 0.28 h | total protein half-life in vivo [8]: 12.7 ± 0.44 h | total protein half-life in vivo [9]: 6.07 ± 0.096 h | total protein half-life in vivo [10]: 14.2 ± 0.38 h

MTTQVPPSALLPLNPEQLARLQAATTDLTPTQLAWVSGYFWGVLNQQPAALAATPAPAAEMPGITIISASQTGNARRVAEALRDDLLAAKLNVKLVNAGDYKFKQIASEKLLIVVTSTQGEGEPPEEAVALHKFLFSKKAPKLENTAFAVFSLGDSSYEFFCQSGKDFDSKLAELGGERLLDRVDADVEYQAAASEWRARVVDALKSRAPVAAPSQSVATGAVNEIHTSPYSKDAPLVASLSVNQKITGRNSEKDVRHIEIDLGDSGMRYQPGDALGVWYQNDPALVKELVELLWLKGDEPVTVEGKTLPLNEALQWHFELTVNTANIVENYATLTRSETLLPLVGDKAKLQHYAATTPIVDMVRFSPAQLDAEALINLLRPLTPRLYSIASSQAEVENEVHVTVGVVRYDVEGRARAGGASSFLADRVEEEGEVRVFIEHNDNFRLPANPETPVIMIGPGTGIAPFRAFMQQRAADEAPGKNWLFFGNPHFTEDFLYQVEWQRYVKDGVLTRIDLAWSRDQKEKVYVQDKLREQGAELWRWINDGAHIYVCGDANRMAKDVEQALLEVIAEFGGMDTEAADEFLSELRVERRYQRDVY
total protein half-life in vivo [1]: 5.2 ± 0.35 h | total protein half-life in vivo [11]: 3.456 ± 0.027 h | total protein half-life in vivo [12]: 3.67 ± 0.1 h | total protein half-life in vivo [2]: 4.31 ± 0.044 h | total protein half-life in vivo [3]: 3.24 ± 0.067 h | total protein half-life in vivo [4]: 2.808 ± 0.02 h | total protein half-life in vivo [5]: 4.99 ± 0.42 h | total protein half-life in vivo [6]: 8.53 ± 0.79 h | total protein half-life in vivo [7]: 3.58 ± 0.06 h | total protein half-life in vivo [8]: 5.215 ± 0.029 h | total protein half-life in vivo [9]: 4.99 ± 0.36 h | total protein half-life in vivo [10]: 8.98 ± 1 h

MTTSMLNAKLLPTAPSAAVVVVRVVVVVGNAP
total protein half-life in vivo [1]: 3.54 h

MTTVYTLVSWLAILGYWLLIAGVTLRILMKRRAVPSAMAWLLIIYILPLVGIIAYLAVGELHLGKRRAERARAMWPSTAKWLNDLKACKHIFAEENSSVAAPLFKLCERRQGIAGVKGNQLQLMTESDDVMQALIRDIQLARHNIEMVFYIWQPGGMADQVAESLMAAARRGIHCRLMLDSAGSVAFFRSPWPELMRNAGIEVVEALKVNLMRVFLRRMDLRQHRKMIMIDNYIAYTGSMNMVDPRYFKQDAGVGQWIDLMARMEGPIATAMGIIYSCDWEIETGKRILPPPPDVNIMPFEQASGHTIHTIASGPGFPEDLIHQALLTAAYSAREYLIMTTPYFVPSDDLLHAICTAAQRGVDVSIILPRKNDSMLVGWASRAFFTELLAAGVKIYQFEGGLLHTKSVLVDGELSLVGTVNLDMRSLWLNFEITLAIDDKGFGADLAAVQDDYISRSRLLDARLWLKRPLWQRVAERLFYFFSPLL [P0A6H8]
total protein half-life in vivo [1]: 6.74 ± 0.71 h | total protein half-life in vivo [12]: 7.06 ± 0.36 h | total protein half-life in vivo [2]: 6.87 ± 0.85 h | total protein half-life in vivo [3]: 6.25 ± 0.099 h | total protein half-life in vivo [4]: 3.38 ± 0.26 h | total protein half-life in vivo [5]: 6.636 ± 0.027 h | total protein half-life in vivo [6]: 13.5 ± 0.82 h | total protein half-life in vivo [7]: 6.16 ± 0.22 h | total protein half-life in vivo [8]: 13.1 ± 1.4 h | total protein half-life in vivo [9]: 6.275 ± 0.026 h | total protein half-life in vivo [10]: 13.1 ± 0.13 h
